Measured values from US7205275 (dated 2007).
Primed or numbered codes have the meaning given here. Where no end group is shown, it is not given here. [ ]: non-standard residue; d: D form. Fc(3) = Fc: non-antigen-binding fragment of an antibody from proteolytic digestion of a whole antibody (vehicle); Fc(4) = non-antigen-binding fragment of an antibody (from proteolytic digestion of a whole antibody); Fc = immunoglobulin Fc domain fused to the peptide (peptibody); Fc(7) = Fc domain, peptide fused N- or C-terminal to it; Fc″ = Fc domain of the peptibody fusion

Biological target: T1, human Ang-2 (human, UniProt O15123)
T1 chain: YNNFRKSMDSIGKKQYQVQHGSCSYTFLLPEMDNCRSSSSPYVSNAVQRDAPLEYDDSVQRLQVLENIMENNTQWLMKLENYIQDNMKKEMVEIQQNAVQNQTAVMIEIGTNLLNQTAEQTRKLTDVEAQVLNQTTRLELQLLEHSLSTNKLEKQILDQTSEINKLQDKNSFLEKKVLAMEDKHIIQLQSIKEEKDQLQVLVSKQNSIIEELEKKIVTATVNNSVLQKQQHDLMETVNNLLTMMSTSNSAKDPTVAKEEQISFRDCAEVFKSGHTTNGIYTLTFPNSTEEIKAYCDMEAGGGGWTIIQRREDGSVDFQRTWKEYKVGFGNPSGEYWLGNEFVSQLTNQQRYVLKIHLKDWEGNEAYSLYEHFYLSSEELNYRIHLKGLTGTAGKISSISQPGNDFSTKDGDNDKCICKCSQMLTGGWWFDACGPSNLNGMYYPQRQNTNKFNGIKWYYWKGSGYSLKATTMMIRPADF
Assay: competition ELISA vs Tie-2

Binder	IC50
M[Fc(7)]GGGGGAQTSQRVGCEWDPWTCQHLTYTLE (not fully specified (bridges); cysteine pairing not given here) [Con4-23 (C)]	9.88 nM
M[Fc(7)]GGGGGAQMGGAGRCEWDPWTCQLLQGWLE (not fully specified (bridges); cysteine pairing not given here) [Con4-13 (C)]	> 1000 nM
M[Fc(4)]GGGGGAQTTIGSMCEWDPWTCAHMQGGLE (not fully specified (bridges); cysteine pairing not given here) [Con4-C1 (C)]	2.75 nM
M[Fc]GGGGGAQLPGQEDCEWDPWTCEHMVRSLE (not fully specified; cysteine pairing not given here) [Con4-37 (C)]	0.49 nM
M[Fc(7)]GGGGGAQNRLQEVCEWDPWTCEHMENVLE (not fully specified (bridges); cysteine pairing not given here) [Con4-31 (C)]	0.16 nM
M[Fc(4)]GGGGGAQWAQQEECAWDPWTCDHMVGLLE (not fully specified; cysteine pairing not given here) [Con4-45 (C)]	0.48 nM
M[Fc(4)]GGGGGAQLRHQEGCEWDPWTCEHMFDWLE (not fully specified; cysteine pairing not given here) [Con4-42 (C)]	0.17 nM
M[Fc(7)]GGGGGAQFGWSHGCEWDPWTCEHMGSTLE (not fully specified (bridges); cysteine pairing not given here) [AC2-Con4 (C)]	0.52 nM
M[Fc(4)]GGGGGAQSISHEECEWDPWTCEHMQVGLE (not fully specified; cysteine pairing not given here) [Con4-43 (C)]	0.18 nM
M[Fc(7)]GGGGGAQTKGKSVCQWDPWTCSHMQSGLE (not fully specified (bridges); cysteine pairing not given here) [Con4-21 (C)]	3.21 nM
M[Fc(7)]GGGGGAQMFLPNECQWDPWTCSNLPEALE (not fully specified (bridges); cysteine pairing not given here) [Con4-14 (C)]	> 1000 nM
M[Fc(4)]GGGGGAQQHWQEECEWDPWTCDHMPSKLE (not fully specified; cysteine pairing not given here) [Con4-46 (C)]	0.26 nM
M[Fc(7)]GGGGGAQAVGSQTCEWDPWTCAHLVEVLE (not fully specified (bridges); cysteine pairing not given here) [Con4-16 (C)]	6.94 nM
M[Fc]GGGGGAQPVNQEDCEWDPWTCEHMPPMLE (not fully specified; cysteine pairing not given here) [Con4-39 (C)]	0.3 nM
M[Fc(7)]GGGGGAQTQGLHQCEWDPWTCKVLWPSLE (not fully specified (bridges); cysteine pairing not given here) [Con4-10 (C)]	86.6 nM
M[Fc(7)]GGGGGAQRAPQEDCEWDPWTCAHMDIKLE (not fully specified (bridges); cysteine pairing not given here) [Con4-25 (C)]	0.31 nM
M[Fc(7)]GGGGGAQGPRISTCQWDPWTCEHMDQLLE (not fully specified (bridges); cysteine pairing not given here) [Con4-17 (C)]	0.96 nM
M[Fc(7)]GGGGGAQRPEDMCSQWDPWTWHLQGYCLE (not fully specified (bridges); cysteine pairing not given here) [Con4-26 (C)]	> 1000 nM
M[Fc(7)]GGGGGAQVLGGQGCEWDPWTCRLLQGWLE (not fully specified (bridges); cysteine pairing not given here) [AC4-Con4 (C)]	1.54 nM

Biological target: T1, human Ang-2
Assay: competition ELISA vs Tie-2
Remark: another data set of the same source

Binder	IC50
MGAQQKFQPLDELEETLYKQWTLQQRLEGGGGG[Fc(3)] [L1-16 (N)]	0.11 nM
MGAQEDYMPLDALDAQLYEQFILLHGLEGGGGG-{Fc(3)} [L1-20 (N)]	0.09 nM
M[Fc(7)]GGGGGAQHQEYCEGMEDPFTFGCEYQGLE (not fully specified (bridges); cysteine pairing not given here) [12-9-6 (C)]	0.95 nM
M[Fc(7)]GGGGGAQLQEWCEGVEDPFTFGCEKQRLE (not fully specified (bridges); cysteine pairing not given here) [12-9-3 (C)]	0.81 nM
MGAQVKYKPLDELDEWLYHQFTLHHQLEGGGGG[Fc(3)] [L1-17 (N)]	0.08 nM
MGAQVKFKPLDALEQTLYEHWMFQQALEGGGGG-Fc [L1-4 (N)]	0.08 nM
M[Fc(7)]GGGGGAQFDYCEGVEDPFTFGCDNHLE (not fully specified (bridges); cysteine pairing not given here) [12-9 (C)]	15 nM
M[Fc(7)]GGGGGAQGFEYCDGMEDPFTFGCDKQTLE (not fully specified (bridges); cysteine pairing not given here) [12-9-1 (C)]	1.84 nM
MGAQQKYQPLDELDKTLYDQFMLQQGLEGGGGG[Fc(3)] [L1-15 (N)]	0.04 nM
MGAQTKFNPLDELEQTLYEQWTLQHQLEGGGGG-{Fc″} [L1-3 (N)]	0.16 nM
MGAQQKFKPLDELEQTLYEQWTLQQRLEGGGGG-Fc [L1-C1 (N)]	0.56 nM
